The target in experiment [1] is T1, EBOV VP30 C-terminal domain, residues 130-272 (Zaire ebolavirus, UniProt Q05323 130-272).
T1 sequence: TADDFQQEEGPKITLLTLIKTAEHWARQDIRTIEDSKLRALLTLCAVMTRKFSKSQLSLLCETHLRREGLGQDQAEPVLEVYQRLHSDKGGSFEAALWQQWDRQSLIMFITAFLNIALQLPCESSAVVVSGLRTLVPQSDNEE
The experiment can be described thus: ITC.

For experiment [2], the target named is T1, EBOV VP30 C-terminal domain, residues …. The experiment in a line: fluorescence polarisation. A general note: Fluorescence polarisation rises when a labelled molecule tumbles more slowly, as on binding a larger partner.
The target of experiment [3] is T2, EBOV VP30 residues 89-288 (in vitro pull-down) (Zaire ebolavirus, UniProt Q05323 89-288).
T2 sequence: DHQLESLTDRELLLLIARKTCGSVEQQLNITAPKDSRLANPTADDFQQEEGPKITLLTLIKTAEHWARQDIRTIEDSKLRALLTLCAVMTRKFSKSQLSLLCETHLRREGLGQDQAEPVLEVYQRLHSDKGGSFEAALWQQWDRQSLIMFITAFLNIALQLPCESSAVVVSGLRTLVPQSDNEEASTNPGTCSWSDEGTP
The experiment in a line: pull-down.

The source of these data is article PMC6366944 (Cell, 2018).

In general, Kd refers to the constant that tells how readily two partners part at equilibrium. By stoichiometry N is commonly meant a count of units in the complex or per binding partner.

Consider SLPATPVFVPVPPPPLYPPPPHT [RBBP6 peptide, residues 549-571], for which the dissociation constant (Kd) is 0.75 ± 0.095 µM in experiment [1] and 18.1 ± 0.41 µM in experiment [2]. Also, in experiment [1], the “stoichiometry N” value is 1.
On to RTPTVAPPAPVYRDHS [unlabeled NP peptide], for which binding in experiment [2] was characterised by a dissociation constant (Kd) of 89.2 ± 2.26 µM.
On to SLPATPVFVPVPPPPLYPPPPHTLP [MBP fusion of RBBP6 residues 549-573], for which, in experiment [3], the binding result is listed as “binds”.
